In patent US20180335433A1, “COMPOSITIONS TARGETING PKC-THETA AND USES AND METHODS OF TREATING PKC-THETA PATHOLOGIES, ADVERSE IMMUNE RESPONSES AND DISEASES” (La Jolla Institute for Allergy and Immunology, priority 2011, published 2018):

Experiments:
[1] = system: CD28 response element (RE/AP) reporter gene; assay: RE/AP luciferase reporter assay in MCC-specific T hybridoma cells; type: cell-based
Procedure: (FIG. 6A) OT-II CD4^+ T cells were infected with retrovirus expressing Myc-tagged V3 domain, V3 mutated at P330/1/4/6A (V3-4PA), or PR motif-deleted V3 (V3-ΔPR). Infected cells (green) were harvested, stimulated, and fixed. Conjugates were stained with anti-Myc plus a secondary Alexa 555-coupled antibody (orange), and anti-PKCθ plus a secondary Alexa 647-coupled antibody (red). Cells were analyzed as in FIG. 1A. (FIG. 6B) Quantitative analysis of the results shown in (FIG. 6A) from 30-50 T-APC conjugates. ** p<0.05. (FIG. 6C) MCC-specific T hybridoma cells were cotransfected with indicated vector, together with RE/AP-Luc and β-Gal reporter plasmids. Cells were stimulated and analyzed as in FIG. 1C. […] Cytokine-producing cells were analyzed by intracellular staining 8 h after restimulation. […] Normalized luciferase activity was determined in triplicates.
The CD28 response element (RE/AP)- or NFAT-luciferase (Luc) reporter genes have been described (Coudronniere, N. et al. Proc Natl Acad Sci USA 97, 3394-3399 (2000)). […] The cells were the lysed and Luc activity was quantitated and normalized to the activity of a cotransfected β-galactosidase (β-Gal) reporter gene.
To determine whether ectopic V3 expression also interfered with PKCθ-dependent TCR/CD28 signaling, the effects of V3 on activation of reporter genes and on T cell differentiation into effector Th cells were analyzed. […]

[2] = system: Th2-mediated lung inflammation; assay: Th2-mediated Ova-induced airway inflammation after adoptive transfer of transduced OT-II Th2 cells; type: in vivo, mouse; conditions: transferred Th2 cells, aerosolized Ova 3 consecutive days
Text: (FIG. 7A-7D) OT-II CD4^+ T cells stimulated with anti-CD3 plus anti-CD28 mAbs and differentiated in vitro under Th2 (FIG. 7A-7C) or Th1 (FIG. 7D, 7E)-polarizing conditions were retrovitrally transduced with the same PKCθ V3 vectors as in FIG. 6. Sorted GFP^+ populations were adoptively transferred into naïve B6 mice, which were challenged with aerosolized Ova for 3 consecutive days. BAL fluid were obtained 1 d post-challenge and analyzed for total mononuclear cell infiltration (FIG. 7A, 7D) and cytokine expression using IL-4 (FIG. 7B), IL-5 (FIG. 7C) and IFN-γ (FIG. 7E) ELISA.
CD4^+ T cells from OT-II B6 mice were isolated and cultured with plate-bound anti-CD3 (5 μg/ml), soluble anti-CD28 (2.5 μg/ml) and IL-2 (100 U/ml) under Th1 or Th2 polarizing conditions. The cells were retrovirally infected on days 2-4 and cultured for an additional 3 days. GFP^+ cells were sorted, and 1×10^6 cells were injected intravenously into naïve WT B6 mice. One day later, mice received aerosolized Ova (5 mg/ml in 20 ml PBS) for 30 min, once a day for 3 consecutive days, using ultrasonic nebulization. Mice were sacrificed 24 h after the last challenge and assessed for lung inflammation. Collection of BAL fluid and determination of cytokine levels were carried out as described (Salek-Ardakani, S. et al. J Immunol 173, 6440-6447 (2004)).
The above findings were extended to an in vivo antigen-specific inflammatory response in an airway inflammation model, using a T cell adoptive transfer system. Mice receiving OT-II Th2 cells transduced with an empty vector developed an inflammatory response by comparison with PBS-challenged control mice, as evidenced by a significant increase in the number of infiltrating leukocytes in the bronchoalveolar lavages (BAL) fluid (FIG. 7a) and in the levels of signature Th2 cytokines, IL-4 (FIG. 7b) and IL-5 (FIG. 7c).

B1: V3 domain: amino acid 282-379 of human PKCθ with N-terminal Myc tag, expressed from pMIG retroviral vector (protein)
chain: GINQKLMAEALAMIESTQQARCLRDTEQIFREGPVEIGLPCSIKNEARPPCLPTPGKREPQGISWESPLDEVDKMCHLPEPELNKERPSLQIKLKIED
modifications: left off: small tags and cut ends
notes: amino acid 282-379 of human PKCθ with N-terminal Myc tag, expressed from pMIG retroviral vector
With B1 the “inhibition of RE/AP reporter gene activity stimulated by WT PKCθ” value ([1]; coexpressed at increasing levels together with WT PKCθ) was “inhibited in a dose-dependent manner”, the “activation of RE/AP reporter gene” value ([1]; expression of the V3 alone) was “did not activate” and the “levels of Th2 cytokines (IL-4, IL-5) in BAL fluid” value [2] was “to basal levels”. For the same molecule, the “levels of infiltrating cells in BAL fluid” value [2] was “to basal levels”.
